Columns and labels:
PP2A–B55 [1] = conditions: 6,8-difluoro-4-methylumbelliferyl phosphate substrate; cited from earlier work
Text: It is not surprising that ARPP19 and FAM122A inhibit the PP2A–B55 phosphatase activity since these two proteins bind on the surface of both B55 and C subunits, blocking access to the active site on C subunit.

PP2A–B55 [2] = experiment: Fluorescent phosphatase assay with OMFP substrate; type: biochemical, human; conditions: three independent biological replicates
Protocol: We noted that the buffer condition we used in our assay (50 mM Tris [pH 7.5], 50 mM NaCl, 5 mM MgCl2, and 0.1 mM EDTA) is substantially different from that used by Padi et al. (30 mM Hepes [pH 7.0], 150 mM NaCl, 1 mM MnCl2, 1 mM DTT, 0.01% Triton X-100, and 0.1 mg/ml bovine serum albumin) ([46], [84]).
Figure 5 Eya3 NTD and B55i inhibit the phosphatase activity of PP2A–B55.A, the phosphatase activity of PP2A–B55 in the absence and presence of Eya3 NTD in a fluorescent phosphatase assay using OMFP as a substrate under our previous buffer conditions ([46]). […] RFU, relative fluorescence units; NTD, N-terminal domain; OMFP, 3-O-methylfluorescein phosphate. […]
FLAG-PP2A–B55 was expressed and purified from cells transfected with pCAG-FLAG-B55, using the same method as FLAG-hEya3. […] Proteins were analyzed by SDS-PAGE, and fractions containing the PP2A–B55α holoenzyme were pooled, concentrated, aliquoted, and stored at −80 °C.
PP2A–B55 holoenzyme (25 nM) with or without 1 μM Eya3 NTD in 30 mM Hepes (pH 7.0), 150 mM NaCl, 1 mM MnCl2, 1 mM DTT, 0.01% Triton X-100, 0.1 mg/ml bovine serum albumin was incubated at room temperature for 10 min. […] Fluorescent OMFP, corresponding to phosphatase activity, was read using a BioTek Synergy H1 plate reader (excitation at 485 nm and emission at 515 nm).

B55α (His-B55) = experiment: Microscale thermophoresis (MST) binding of Eya3 to labeled His-B55; design: species or system human; conditions: fluorescently labeled His-B55, vs Eya3 WT
Text: We expressed and purified Eya3 protein from Escherichia coli and the His-B55α subunit from insect cells (Fig. S1). In the remainder of the article, we will use B55 to represent B55α for simplicity and PP2A–B55 to represent the holoenzyme containing the A, B55, and C subunits. We labeled His-B55 with the RED–Tris–NTA dye and carried out microscale thermophoresis (MST) experiments with increasing concentrations of Eya3.
The modeled Eya3 peptide (residues 65–86) interacts mostly with residues on blades 3 and 4 of the β-propeller on the B55 surface (including residues on the β2D and β3A loop, β3B and β3C loop, and β3D and β4A loop) and with residues on the α1 and α2 helix positioned above blade 5, as well as the α2 and β6A loop (Fig. 1F). In particular, residue H79^Eya3 forms pi–pi or pi–cation stacking with H179^B55 and a hydrogen bond with D197^B55 (Fig. 2A). […] Furthermore, Y77^Eya3 forms a hydrogen bond with the main chain carbonyl of L225^B55, and K75^Eya3 forms another hydrogen bond with Y337^B55 (Fig. 2, B and C). […] We expressed and purified Eya3 K75A, Y77A, and H79A mutant proteins from E. coli and carried out MST experiments with fluorescently labeled His-B55. […] While we were working on the structure of PP2A–B55 + Eya3, Padi et al. ([84]) published the cryo-EM structure of PP2A–B55 in complex with an Eya3 peptide (residues 62–108) on bioRxiv.
FLAG-hB55, FLAG-hEya3, GFP, and GFP-B55i were cloned into the pCAG vector; (GST)-mEya3 was cloned into pGEX-6p1; His-hB56γ1 was cloned into pGEX-4T1; and His-hB55 was cloned in pFASTbac, all using the NEBuilder HiFi DNA Assembly Cloning Kit (New England Biolabs). h and m represent human and mouse proteins, respectively.
GST-mEya3 and mutants were expressed in BL21 cells. Cells were lysed in lysis buffer containing 50 mM Tris (pH 7.5), 250 mM NaCl, 5% glycerol, 1 mM DTT, and protease inhibitor cocktail (PIC; Thermo Scientific). Lysis was done in ice with sonication using 4 × 45 s pulses with 2-min off periods. NaCl was brought up to 0.5 M using 5 M NaCl, and the lysate was centrifuged for 40 min at 18,000g. Supernatant was gravity-flown over glutathione resin twice. Resin was washed with 100 ml of lysis buffer. GST was cleaved with PreScission protease and eluted into lysis buffer. Eluates were pooled and concentrated with Amicon Ultra Centrifugal filters. Concentrated protein was separated on a pre-equilibrated S200 column for size-exclusion chromatography. Peaks were combined, concentrated again, aliquoted, and stored at −80 °C.
His-B55 was expressed in Hi5 cells. […]
His-B55 or His-B56γ1 labeled with […] (NanoTemper) was added to serial dilutions of mEya3 in PBS with 0.05% Tween-20. The samples were then read with a Monolith NT.115^Pico (NanoTemper) according to the manufacturer’s instructions.

[3] = system: apparent S/T phosphatase activity of Eya3; conditions: Eya3 mutant; cited from earlier work
Text: The modeled Eya3 peptide (residues 65–86) interacts mostly with residues on blades 3 and 4 of the β-propeller on the B55 surface (including residues on the β2D and β3A loop, β3B and β3C loop, and β3D and β4A loop) and with residues on the α1 and α2 helix positioned above blade 5, as well as the α2 and β6A loop (Fig. 1F). In particular, residue H79^Eya3 forms pi–pi or pi–cation stacking with H179^B55 and a hydrogen bond with D197^B55 (Fig. 2A). […] Furthermore, Y77^Eya3 forms a hydrogen bon ...

Molecule | phosphatase activity of PP2A–B55 in vitro (PP2A–B55 [1]) | binding between Eya3 and B55 (mutants) (B55α (His-B55)) | further results
FAM122A: a protein inhibitor that binds to both the B and C subunits (protein, UniProt Q96E09 1-287, looked up) PPP2R1A-PPP2R2A-interacting …: MAQEKMELDLELPPGTGGSPAEGGGSGGGGGLRRSNSAPLIHGLSDTSPVFQAEAPSARRNSTTFPSRHGLLLPASPVRMHSSRLHQIKQEEGMDLINRETVHEREVQTAMQISHSWEESFSLSDNDVEKSASPKRIDFIPVSPAPSPTRGIGKQCFSPSLQSFVSSNGLPPSPIPSPTTRFTTRRSQSPINCIRPSVLGPLKRKCEMETEYQPKRFFQGITNMLSSDVAQLSDPGVCVSSDTLDGNSSSAGSSCNSPAKVSTTTDSPVSPAQAASPFIPLDELSSK | inhibit the phosphatase activity of PP2A–B55 in vitro | – | –
Eya3 NTD: Eya3 N-terminal domain protein (NTD, residues 1–250) (protein, UniProt Q99504 1-250, looked up, fragment) MEEEQDLPEQPVKKAKMQESGEQTISQVSNPDVSDQKPETSSLASNLPMSEEIMTCTDYIPRSSNDYTSQMYSAKPYAHILSVPVSETAYPGQTQYQTLQQTQPYAVYPQATQTYGLPPFGALWPGMKPESGLIQTPSPSQHSVLTCTTGLTTSQPSPAHYSYPIQASSTNASLISTSSTIANIPAAAVASISNQDYPTYTILGQNQYQACYPSSSFGVTGQTNSDAESTTLAATTYQSEKPSVMAPAPA | – | – | phosphatase activity of PP2A–B55 (Padi et al. buffer) (PP2A–B55 [2]; 25 nM PP2A–B55, 1 μM Eya3 NTD, 30 mM Hepes (pH 7.0), 150 mM NaCl, 1 mM MnCl2, 1 mM DTT, 0.01% Triton X-100, 0.1 mg/ml BSA, room temperature 10 min, then 37 °C 30 min, ex 485/em 515 nm): inhibits the phosphatase activity of PP2A–B55; phosphatase activity of PP2A–B55 (previous buffer) (PP2A–B55 [2]; buffer 50 mM Tris [pH 7.5], 50 mM NaCl, 5 mM MgCl2, 0.1 mM EDTA, with vs without Eya3 NTD): increases the phosphatase activity of PP2A–B55
ARPP19: a protein inhibitor that binds to both the B and C subunits (protein, UniProt P56211 2-112, looked up) cAMP-regulated phosphoprotein …: SAEVPEAASAEEQKEMEDKVTSPEKAEEAKLKARYPHLGQKPGGSDFLRKRLQKGQKYFDSGDYNMAKAKMKNKQLPTAAPDKTEVTGDHIPTPQDLPQRKPSLVASKLAG | inhibit the phosphatase activity of PP2A–B55 in vitro | – | –
K75A: Eya3 K75A mutant protein from E. coli (protein, UniProt Q99504 1-573, looked up, variant K75A) Protein phosphatase EYA3: MEEEQDLPEQPVKKAKMQESGEQTISQVSNPDVSDQKPETSSLASNLPMSEEIMTCTDYIPRSSNDYTSQMYSAAPYAHILSVPVSETAYPGQTQYQTLQQTQPYAVYPQATQTYGLPPFGALWPGMKPESGLIQTPSPSQHSVLTCTTGLTTSQPSPAHYSYPIQASSTNASLISTSSTIANIPAAAVASISNQDYPTYTILGQNQYQACYPSSSFGVTGQTNSDAESTTLAATTYQSEKPSVMAPAPAAQRLSSGDPSTSPSLSQTTPSKDTDDQSRKNMTSKNRGKRKADATSSQDSELERVFLWDLDETIIIFHSLLTGSYAQKYGKDPTVVIGSGLTMEEMIFEVADTHLFFNDLEECDQVHVEDVASDDNGQDLSNYSFSTDGFSGSGGSGSHGSSVGVQGGVDWMRKLAFRYRKVREIYDKHKSNVGGLLSPQRKEALQRLRAEIEVLTDSWLGTALKSLLLIQSRKNCVNVLITTTQLVPALAKVLLYGLGEIFPIENIYSATKIGKESCFERIVSRFGKKVTYVVIGDGRDEEIAAKQHNMPFWRITNHGDLVSLHQALELDFL | – | significantly reduce the binding between Eya3 and B55 | –
Y77A: Eya3 Y77A mutant protein from E. coli (protein, UniProt Q99504 1-573, looked up, variant Y77A) Protein phosphatase EYA3: MEEEQDLPEQPVKKAKMQESGEQTISQVSNPDVSDQKPETSSLASNLPMSEEIMTCTDYIPRSSNDYTSQMYSAKPAAHILSVPVSETAYPGQTQYQTLQQTQPYAVYPQATQTYGLPPFGALWPGMKPESGLIQTPSPSQHSVLTCTTGLTTSQPSPAHYSYPIQASSTNASLISTSSTIANIPAAAVASISNQDYPTYTILGQNQYQACYPSSSFGVTGQTNSDAESTTLAATTYQSEKPSVMAPAPAAQRLSSGDPSTSPSLSQTTPSKDTDDQSRKNMTSKNRGKRKADATSSQDSELERVFLWDLDETIIIFHSLLTGSYAQKYGKDPTVVIGSGLTMEEMIFEVADTHLFFNDLEECDQVHVEDVASDDNGQDLSNYSFSTDGFSGSGGSGSHGSSVGVQGGVDWMRKLAFRYRKVREIYDKHKSNVGGLLSPQRKEALQRLRAEIEVLTDSWLGTALKSLLLIQSRKNCVNVLITTTQLVPALAKVLLYGLGEIFPIENIYSATKIGKESCFERIVSRFGKKVTYVVIGDGRDEEIAAKQHNMPFWRITNHGDLVSLHQALELDFL | – | significantly reduce the binding between Eya3 and B55 | apparent S/T phosphatase activity of Eya3 [3]: abolish the apparent S/T phosphatase activity of Eya3

Source: paper PMC12246617, “Cryo-EM structures reveal the PP2A–B55α and Eya3 interaction that can be disrupted by a peptide inhibitor” (The Journal of Biological Chemistry, 2025)
